Where two headings read alike, the source gives them in different places. One block for each binder: values may come before it.
Tests used:
[1] = target: T1, CD25 on cells (SU-DHL-1 target cells; PBMC) (UniProt P01589 22-272, limits assumed); test: cell-based or functional assay
T1 sequence (looked up): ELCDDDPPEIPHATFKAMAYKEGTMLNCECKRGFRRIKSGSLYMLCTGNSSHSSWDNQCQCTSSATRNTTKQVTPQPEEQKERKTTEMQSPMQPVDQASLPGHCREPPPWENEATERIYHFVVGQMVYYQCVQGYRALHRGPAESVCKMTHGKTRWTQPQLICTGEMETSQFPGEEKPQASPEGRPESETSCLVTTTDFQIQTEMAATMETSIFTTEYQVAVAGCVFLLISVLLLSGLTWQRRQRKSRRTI

[2] = target: T2, CD25 protein (Sino Biological, 10165-H08H) (UniProt P01589 22-213); test: ELISA; CD25 protein coated in a dilution series, antibody at one fixed concentration, anti-human IgG/HRP
T2 construct: Bought recombinant protein; It speaks elsewhere of human CD25; also called antigen CD25; IL-2Rα
T2 sequence (looked up): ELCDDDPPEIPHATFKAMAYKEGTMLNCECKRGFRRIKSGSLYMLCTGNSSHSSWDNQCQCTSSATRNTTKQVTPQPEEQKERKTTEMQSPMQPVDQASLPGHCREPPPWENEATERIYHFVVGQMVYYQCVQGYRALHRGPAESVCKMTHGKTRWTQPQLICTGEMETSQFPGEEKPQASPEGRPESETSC
Source text: (§1) The results are shown in FIG. 2A to FIG. 2E and Table 2 to Table 6.

[3] = target: T2, CD25 protein (Sino Biological, …); test: as above; remark: listed apart in the source
Source text: as §1

[4] = target: T1, CD25 on cells (SU-DHL-1 target cells; …); test: cell-based or functional assay; remark: listed apart in the source
[5] = target: T2, CD25 protein (Sino Biological, …); test: ELISA; CD25 protein coated in a dilution series, antibody at one fixed concentration, anti-human IgG/HRP; remark: listed apart in the source
Source text: as §1

[6] = target: T2, CD25 protein (Sino Biological, …); test: as above; remark: listed apart in the source
Source text: as §1

[7] = target: T2, CD25 protein (Sino Biological, …); test: as above; remark: listed apart in the source
Source text: as §1

[8] = target: T1, CD25 on cells (SU-DHL-1 target cells; …); test: cell-based or functional assay; remark: listed apart in the source
[9] = target: T2, CD25 protein (Sino Biological, …); test: SPR (BIAcore 8K); antibody captured by anti-human IgG Fc, CD25 protein as analyte, 1:1 model
Description: Antibody binding kinetics uses BIAcore8K instrument based on surface plasmon resonance (SRP) technology to measure. Anti-human IgG antibody amino was coupled to a CMS biosensor chip by the GE anti Human IgG Fc amino coupling kit (GE, cat # BR-1008-39) to obtain approximately 1000 response units (RU). For kinetic measurements, the CD25 protein (Sino Biological, 10165-H08H) was diluted 2-fold continuously with HBS-EP+1×(GE, BR-1008-26) buffer, starting at 50 nM, being diluted 2-fold for 4 concentration gradients and setting 0 concentration. The antibody to be detected: 2 μg/ml, sample injection time 70 s, flow rate 5 μL/min, stable for 5 s; CD25 protein: binding for 60 s, flow rate 30 μL/min, dissociation for 450 s; regeneration: regeneration was performed for 30 s with 3M MgCl₂ buffer, Startup 3 times. The association constant (ka) and dissociation constant (kd) were calculated using a simple one-to-one Languir binding model (BIAcore Evaluation Software version 3.2), and the equilibrium dissociation constant (KD) was calculated by the ratio kd/ka.

- % PSTAT5 in CD3 positive T cells of PBMC after IL2, with 10 µg/mL antibody [1]: 18.5%
- EC50 [2]: 0.0141 µg/mL
- EC50 [3]: 0.0106 µg/mL
- EC50 [5]: 0.0245 µg/mL
- EC50 [6]: 0.017 µg/mL
- EC50 [7]: 0.0121 µg/mL
- Kd [9]: 5.19 nM
- koff [9]: 0.000912 s⁻¹
- kon [9]: 176000 M⁻¹ s⁻¹
B1: CD25-MA251-IgG1 (antibody, V domains shown)
VH: QVQLKESGPGLVAPSQSLSITCTVSGFSLTSYGIQWVRQPPGKGLEWLGVIWAGGSTNYNSALMSRLSISKDNSKSQVFLKMNSLQTDDTAMYYCARAYGYDGSWLAYWGQGTLVTVSS
VL: QIVLSQSPAILSASPGEKVTMTCRASSSVSYMHWYQQKPGSSPKPWIFATSNLASGVPARFSGSGSGTSYSLTINRVEAEDADTYYCQQWSSNPPTFGGGTKLEIKR
notes: also called CD25Q-MA251; control antibody
- EC50 of simulated killing activity (Jurkat effector reporter cells, SU-DHL-1 target cells, luminescence) [4]: 0.361 µg/mL
- EC50 of simulated killing activity (Jurkat effector reporter cells, SU-DHL-1 target cells, luminescence) [8]: 0.255 µg/mL

- % PSTAT5 in CD3 positive T cells of PBMC after IL2, with 10 µg/mL antibody [1]: 16.5%
- EC50 [5]: 0.00226 µg/mL
- Kd [9]: 3.79 nM
- koff [9]: 0.000339 s⁻¹
- kon [9]: 89600 M⁻¹ s⁻¹
B2: CD25Q8-BT942-IgG1 (antibody, V domains shown)
VH: QVQLVQSGAEVKKPGSSVKVSCKASGGTFSSDAINWVRQAPGQGLEWMGRIIPIFGVADYAQKFQGRVTLTADKSTSTAYMDLSSLRSEDTAVFYCARERGDYSNFWYFDLWGRGTLVTVSS
VL: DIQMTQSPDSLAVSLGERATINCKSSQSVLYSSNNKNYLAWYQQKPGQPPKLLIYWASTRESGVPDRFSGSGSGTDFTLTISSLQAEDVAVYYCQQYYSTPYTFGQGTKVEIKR
notes: IgG1 expressed in HEK293

- % PSTAT5 in CD3 positive T cells of PBMC after IL2, with 10 µg/mL antibody [1]: 15.8%
- EC50 [5]: 0.00916 µg/mL
- Kd [9]: 3.09 nM
- koff [9]: 0.00218 s⁻¹
- kon [9]: 705000 M⁻¹ s⁻¹
B3: CD25Q11-CT848-IgG1 (antibody, V domains shown)
VH: QVQLQQWGAGLLKPSETLSLTCAVYGGSFSGSYWSWIRQSPRKGLEWIGEIDHSGSTIANPSLKSRITISLDTSKNQFFLQLRSMTAADTAVYYCARGEAFDIWGQGTMVTVSS
VL: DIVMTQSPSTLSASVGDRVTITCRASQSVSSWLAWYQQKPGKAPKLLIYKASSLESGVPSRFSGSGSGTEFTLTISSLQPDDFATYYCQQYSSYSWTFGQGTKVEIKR
notes: IgG1 expressed in HEK293

Source: patent US20220195055A1 (SHANDONG BOAN BIOTECHNOLOGY, published 2022)
